Results from US20210061908A1 (IOMX THERAPEUTICS, published 2021).
Blank lines part the entries; values can stand above or below the binder they belong to.

Key:
[1] = molecular target: T1, extracellular domain (ECD) of human IGSF11 (VSIG3), HIS-tagged (human, UniProt Q5DX21 23-241, biotinylated in the ELISA of Example 4 (site not stated)); test: ELISA, coated IGSF11-HIS, IgG1 format; EC50 grade (* >1 nM, ** 0.05-1 nM, *** 0.02-0.05 nM, **** <0.02 nM)
T1 construct: also called HIS-IGSF11; IGSF11-HIS; not shown: HIS6 tag
T1 sequence: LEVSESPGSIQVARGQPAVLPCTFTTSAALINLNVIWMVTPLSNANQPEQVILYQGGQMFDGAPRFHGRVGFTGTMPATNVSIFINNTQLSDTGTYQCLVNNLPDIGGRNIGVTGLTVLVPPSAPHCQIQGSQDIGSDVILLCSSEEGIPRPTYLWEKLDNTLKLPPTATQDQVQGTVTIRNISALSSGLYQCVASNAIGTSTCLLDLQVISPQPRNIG

[2] = molecular target: T2, human IGSF11 (VSIG3) expressed on the surface of cells (human, UniProt Q5DX21 23-431); test: FACS on M579-A2-luc cells treated with IGSF11 siRNA (KD: target knocked down, specificity control)
T2 construct: one molecule for all cell lines; the cell line is named under assay; also called IGSF11-expressing cells; HEK-OE
T2 sequence: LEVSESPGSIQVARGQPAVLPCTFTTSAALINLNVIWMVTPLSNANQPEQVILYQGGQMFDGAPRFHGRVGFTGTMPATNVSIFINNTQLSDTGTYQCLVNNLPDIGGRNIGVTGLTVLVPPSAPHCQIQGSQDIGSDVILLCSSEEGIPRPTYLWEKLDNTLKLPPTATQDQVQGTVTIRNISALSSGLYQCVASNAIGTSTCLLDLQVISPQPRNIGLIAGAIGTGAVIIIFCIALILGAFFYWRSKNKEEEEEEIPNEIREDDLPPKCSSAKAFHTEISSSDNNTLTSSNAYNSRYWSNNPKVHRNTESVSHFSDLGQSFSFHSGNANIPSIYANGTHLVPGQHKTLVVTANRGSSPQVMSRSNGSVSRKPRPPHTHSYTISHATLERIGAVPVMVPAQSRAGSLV

[3] = molecular target: T2, human IGSF11 (VSIG3) expressed on the …; test: FACS on DMS 273 cells treated with IGSF11 siRNA (KD: target knocked down, specificity control)
[4] = molecular target: T2, human IGSF11 (VSIG3) expressed on the …; test: FACS on M579-A2-luc cells treated with scrambled control siRNA (SC)
CL-11 (C) [5] = test: FACS on CL-11 cells (do not express IGSF11; negative cell line) treated with scrambled control siRNA (SC)
CL-11 (C) [6] = test: FACS on CL-11 cells (do not express IGSF11; negative cell line) treated with IGSF11 siRNA (KD)
[7] = molecular target: T2, human IGSF11 (VSIG3) expressed on the …; test: FACS, IgG1 format, recombinant HEK cells expressing IGSF11 (HEK-OE)
[8] = molecular target: T2, human IGSF11 (VSIG3) expressed on the …; test: FACS, IgG1 format, DMS 273 cells
[9] = molecular target: T2, human IGSF11 (VSIG3) expressed on the …; test: FACS on DMS 273 cells treated with scrambled control siRNA (SC)
[10] = molecular target: T3, IGSF11 (VSIG3), construct used in SPR and BLI not stated (UniProt Q5DX21 23-241, limits assumed); test: SPR (Biacore), IgG1 format; IGSF11 construct not stated
T3 sequence (looked up): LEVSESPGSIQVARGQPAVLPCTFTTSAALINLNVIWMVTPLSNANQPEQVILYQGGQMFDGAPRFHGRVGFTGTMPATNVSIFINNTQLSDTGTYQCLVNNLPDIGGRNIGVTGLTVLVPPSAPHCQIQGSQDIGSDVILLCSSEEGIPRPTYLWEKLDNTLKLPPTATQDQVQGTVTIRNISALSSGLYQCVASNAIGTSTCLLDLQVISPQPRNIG

EC50 [1]: < 0.02 nM
B1: A-016 (human IgG1 format) (antibody, V domains shown)
VH: QVQLQESGAEVKKPGASVKVSCKASGYTFTGYYMHWVRQAPGQGLEWMGGIIPIFGTANYAQKFQGRVTITADESTSTAYMELSSLRSEDTAVYYCAGAGMELTRSGAYYYYGMDVWGQGTTVTVSS
VL: QSALTQPASVSGSPGQSITISCTGTSSDIGGYTFVSWYQQHPGKAPKVMIHDVNNRPSGISNRFSGSKSGNTASLTISGLQAEDEADYYCSSVTSTNTYVFGTGTKVTVL
notes: human IgG1 format

EC50 [1]: 0.05 to 1 nM
B2: A-029 (human IgG1 format) (antibody, V domains shown)
VH: QVQLVQSGAEVKKPGSSVKVSCKASGGTFSSYAISWVRQAPGQGLEWMGGIIPIFGTANYAQKFQGRVTITADESTGTAYMELSSLRSEDTAVYYCARSYYYYYGMDVWGQGTTVTVSS
VL: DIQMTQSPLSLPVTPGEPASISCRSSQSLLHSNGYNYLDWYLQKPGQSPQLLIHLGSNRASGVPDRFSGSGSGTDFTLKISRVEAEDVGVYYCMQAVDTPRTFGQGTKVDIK
notes: human IgG1 format

EC50 [1]: 0.05 to 1 nM
B3: A-003 (human IgG1 format) (antibody, V domains shown)
VH: VQLVQSGAEVKKPGSSVKVSCKASGGTFSSYAISWVRQAPGQGLEWMGGIIPIFGTANYAQKFQGRVTITADESTSTAYMELSSLRSEDTAVYYCASPRIQLWAAGGFDYWGQGTLVTVSS
VL: QSALTQPASVSGSPGQSITISCTGTSSDVGGYNLVSWYQQHPGKAPKLMIYDVSNRPSGVSNRFSGSKSGNTASLTISGLQAEDEADYYCSSFTTSTTLVFGGGTKLTVL
notes: human IgG1 format

percentage binding [2]: 9.15%
percentage binding [3]: 34.2%
percentage binding [4]: 65.6%
percentage binding (CL-11 (C) [5]): 8.88%
percentage binding (CL-11 (C) [6]): 13.2%
EC50 [7]: > 10 nM
EC50 [8]: > 10 nM
percentage binding [9]: 82.3%
EC50 [1]: < 0.02 nM
B4: A-007 (human IgG1 format) (antibody, V domains shown)
VH: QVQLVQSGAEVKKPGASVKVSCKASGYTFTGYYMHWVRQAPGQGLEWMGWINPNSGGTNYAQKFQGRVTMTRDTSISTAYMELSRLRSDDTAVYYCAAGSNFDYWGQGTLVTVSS
VL: QSALTQPASVSGSPGQSITIACTGSSSDIGSFSYVSWYQQRPGKAPTLIIYGVNNRPLGVSRRFSGSKSGNTASLSISGLQAEDEADYYCSSYTRRSTVIFGGGTKLTVL
notes: human IgG1 format

Kd [10]: 100 to 250 nM
EC50 [1]: < 0.02 nM
B5: A-004 (human IgG1 format) (antibody, V domains shown)
VH: EVQLVESGGGLVKPGGSLRLSCAASGFTFSSYSMNWVRQAPGKGLEWVSSISSSSSYIYYADSVKGRFTISRDNAKNSLYLQMNSLRAEDTAVYYCARGQLLWFGESALIDAFDIWGQGTMVTVSS
VL: EIVLTQSPSSLSASVGDRVTITCRASQSISSYLNWYQLKPGKAPKLLIYAASILQSGVPSRFSGSGSGTDFTLTISSLQPEDFAAYYCQQSYSTPRTFGQGTKLEIK
notes: human IgG1 format

EC50 [7]: > 50 nM
EC50 [1]: 0.02 to 0.05 nM
B6: A-035 (human IgG1 format) (antibody, V domains shown)
VH: QVQLVQSGAEVKKPGASVKVSCKASGYTFTGYYMHWVRQAPGQGLEWMGWINPNSGNTGYAQKFQGRVTMTRNTSISTAYMELSSLRSEDTAVYYCARGRLERGYWYFDLWGRGTLVTVSS
VL: NFMLTQPHSVSESPGRTVTISCTRSSGSITSNYVQWYQQRPGSAPTILIYEDKERPSEVPDRFSGSIDISSNSASLTISGLKTEDEADYYCQSYGGTSQGVLFGGGTKVTVL
notes: human IgG1 format

Kd [10]: 250 to 500 nM
EC50 [1]: 0.05 to 1 nM
B7: A-034 (human IgG1 format) (antibody, V domains shown)
VH: QMQLVQSGGGLVKPGGSLRLSCAASGFTFSSYTMNWVRQAPGKGLEWVSSISSIGTYIYYADSVKGRFTISRDNAKNSLYLQMNSLRAEDTAVYYCARVLLSGSYYGYFDSWGQGTLVTVSS
VL: QSVLTQPPSVSGAPGQRVTISCTGSSSNIGAGYDVHWYQQLPGTAPKLFIYGNSNRPSGVPDRFSGSKSGTSASLAITGLQAEDEADYYCQSYDSSLSGYVFGTGTKVTVL
notes: human IgG1 format

percentage binding [2]: 2.01%
percentage binding [3]: 3.81%
percentage binding [4]: 11.6%
percentage binding (CL-11 (C) [5]): 3.6%
percentage binding (CL-11 (C) [6]): 3.47%
EC50 [7]: > 50 nM
percentage binding [9]: 64.4%
B8: A-026 (human IgG1 format) (antibody, V domains shown)
VH: QVQLQESGPGLVKPSQTLSLTCTVSGGSISSGGYYWSWIRQHPGKGLEWIGYIYYSGSTYYNPSLKSRVTISVDTSKNQFSLKLSSVTAADTAVYYCASWSLGTSNHGWFDPWGQGTLVTVSS
VL: QSVLTQPPSASGTPGQRVTISCSGSSSNIGSNTVNWYQQLPGTAPKLLISDNNNRPSGVPDRFSGSKSGTSASLAITGLQAEDEADYYCQSYDSNLSGWVFGGGTKLTVL
notes: human IgG1 format

percentage binding [2]: 1.3%
percentage binding [3]: 1.6%
percentage binding [4]: 1.17%
percentage binding (CL-11 (C) [5]): 1.95%
percentage binding (CL-11 (C) [6]): 2.91%
percentage binding [9]: 5.97%
B9: A-015 (human IgG1 format) (antibody, V domains shown)
VH: not shown
VL: QPVLTQSPSASASLGASVKLTCTLSSGHTNYAIAWRQQQPGKAPRYLMLLNSDGSHTRGGGIPDRFSGSSSGAERYLTISSLQSEDEADYYCMIWHNNAWVFGGGTKLAVL
notes: human IgG1 format

EC50 [1]: 0.02 to 0.05 nM
B10: A-008 (human IgG1 format) (antibody, V domains shown)
VH: QLQLQESGPGLVKPSETLSLTCTVSGGSISSSGYYWGWIRQPPGKGLEWIGSIYYSGSTYYNPSLKSRVTISVDTSKNQFSLKLSSVTAADTAVYYCARHRVRFGEFDAFDIWGQGTMVTVSS
VL: QAVLTQPPSVSGAPGERVTLSCTGTSSNVGADFDVHWYQQFPGTAPRLLIFGSDNRPSGVPDRFSGSKSGTSASLAITGLQVEDEADYYCQAYDVRLSGWVFGGGTKLTVL
notes: human IgG1 format

Kd [10]: > 500 nM
EC50 [8]: < 10 nM
EC50 [1]: 0.02 to 0.05 nM
B11: A-024 (human IgG1 format) (antibody, V domains shown)
VH: QMQLVQSGAEVKKPGSSVKVSCKASGGTFSSYAISWVRQAPGQGLEWMGWISAYNGNTNYAQKLQGRVTMTTDTSTSTAYMELRSLRSDDTAVYYCASLGSYGYTGAFDIWGQGTMATVSS
VL: QSALTQPASVSGSPGQSITISCTGTSSDVGGYNYVSWYQQHPGKAPKLMIYEVSNRPSGVSNRFSGSKSGNTASLTISGLQAEDEADYYCSSYTSSSTLVVFGGGTKLTVL

EC50 [7]: 10 to 50 nM
EC50 [8]: 10 to 50 nM
EC50 [1]: < 0.02 nM
B12: A-022 (human IgG1 format) (antibody, V domains shown)
VH: EVQLLESGPGLVKPSQTLSLTCTVSGGSISSGGYYWSWIRQHPGKGLEWIGYIYYSGSTYYNPSLKSRVTISVDTSKNQFSLKLSSVTAADTAVYYCARASRSTDYYFDYWGQGTLVTVSS
VL: QPGLTQPPSMSYGLGQTATLTCTGNRNNIGDQGAAWLQQHQGHPPKLLSYRNNNGPSGISERLSASRSGNTASLTISGLQPEDEADYYCSAWDSSLRAWVFGGGTKLTVL
notes: human IgG1 format

Kd [10]: 100 to 250 nM
EC50 [7]: 10 to 50 nM
EC50 [8]: > 50 nM
EC50 [1]: < 0.02 nM
B13: A-013 (human IgG1 format) (antibody, V domains shown)
VH: EVQLVESGGGLIQPGGSLRLSCAASGFTVSSNYMSWVRQAPGKGLEWVSVIYSGGSTYYADSVKGRFTISRDNSKNTLYLQMNSLRAEDTAVYYCARGNPYYYGDLQVNFDYWGQGTLVTVSS
VL: QAVVTQEPSLTVSPGGTVTLTCASSTGAVTSAYYPNWFQQKPGQAPRALIYSTSNKHSWTPARFSGSLLGGKAALTLSGVQPEDEADYYCLLYYGGAWVFGGGTKLTVL
notes: human IgG1 format

EC50 [1]: 0.05 to 1 nM
B14: A-009 (human IgG1 format) (antibody, V domains shown)
VH: QVQLVQSGAEVKKPGSSVKVSCKASGGTFSSYAISWVRQAPGQGLEWMGGIIPIFGTANYAQKFQGRVTITADESTSTAYMELSSLRSEDTAVYYCARGRGFGELYFDYWGQGTLVTVSS
VL: ETTLTQSPATLSVSPGERATLSCRASQGVRSNIAWYQQKPGQAPRLLIYDSSTRATGIPARFSGSGSGTEFTLTISSLQSEDFAVYSCQQYKNWPRTFGQGTKVEIK
notes: human IgG1 format
